These results are taken from patent US20240293504A1.

For this assay, the target named is CD91 (mouse) (UniProt Q91ZX7). The experiment in a line: cell-based or functional assay.
Sequence of UniProt Q91ZX7 (Q91ZX7 20-4545): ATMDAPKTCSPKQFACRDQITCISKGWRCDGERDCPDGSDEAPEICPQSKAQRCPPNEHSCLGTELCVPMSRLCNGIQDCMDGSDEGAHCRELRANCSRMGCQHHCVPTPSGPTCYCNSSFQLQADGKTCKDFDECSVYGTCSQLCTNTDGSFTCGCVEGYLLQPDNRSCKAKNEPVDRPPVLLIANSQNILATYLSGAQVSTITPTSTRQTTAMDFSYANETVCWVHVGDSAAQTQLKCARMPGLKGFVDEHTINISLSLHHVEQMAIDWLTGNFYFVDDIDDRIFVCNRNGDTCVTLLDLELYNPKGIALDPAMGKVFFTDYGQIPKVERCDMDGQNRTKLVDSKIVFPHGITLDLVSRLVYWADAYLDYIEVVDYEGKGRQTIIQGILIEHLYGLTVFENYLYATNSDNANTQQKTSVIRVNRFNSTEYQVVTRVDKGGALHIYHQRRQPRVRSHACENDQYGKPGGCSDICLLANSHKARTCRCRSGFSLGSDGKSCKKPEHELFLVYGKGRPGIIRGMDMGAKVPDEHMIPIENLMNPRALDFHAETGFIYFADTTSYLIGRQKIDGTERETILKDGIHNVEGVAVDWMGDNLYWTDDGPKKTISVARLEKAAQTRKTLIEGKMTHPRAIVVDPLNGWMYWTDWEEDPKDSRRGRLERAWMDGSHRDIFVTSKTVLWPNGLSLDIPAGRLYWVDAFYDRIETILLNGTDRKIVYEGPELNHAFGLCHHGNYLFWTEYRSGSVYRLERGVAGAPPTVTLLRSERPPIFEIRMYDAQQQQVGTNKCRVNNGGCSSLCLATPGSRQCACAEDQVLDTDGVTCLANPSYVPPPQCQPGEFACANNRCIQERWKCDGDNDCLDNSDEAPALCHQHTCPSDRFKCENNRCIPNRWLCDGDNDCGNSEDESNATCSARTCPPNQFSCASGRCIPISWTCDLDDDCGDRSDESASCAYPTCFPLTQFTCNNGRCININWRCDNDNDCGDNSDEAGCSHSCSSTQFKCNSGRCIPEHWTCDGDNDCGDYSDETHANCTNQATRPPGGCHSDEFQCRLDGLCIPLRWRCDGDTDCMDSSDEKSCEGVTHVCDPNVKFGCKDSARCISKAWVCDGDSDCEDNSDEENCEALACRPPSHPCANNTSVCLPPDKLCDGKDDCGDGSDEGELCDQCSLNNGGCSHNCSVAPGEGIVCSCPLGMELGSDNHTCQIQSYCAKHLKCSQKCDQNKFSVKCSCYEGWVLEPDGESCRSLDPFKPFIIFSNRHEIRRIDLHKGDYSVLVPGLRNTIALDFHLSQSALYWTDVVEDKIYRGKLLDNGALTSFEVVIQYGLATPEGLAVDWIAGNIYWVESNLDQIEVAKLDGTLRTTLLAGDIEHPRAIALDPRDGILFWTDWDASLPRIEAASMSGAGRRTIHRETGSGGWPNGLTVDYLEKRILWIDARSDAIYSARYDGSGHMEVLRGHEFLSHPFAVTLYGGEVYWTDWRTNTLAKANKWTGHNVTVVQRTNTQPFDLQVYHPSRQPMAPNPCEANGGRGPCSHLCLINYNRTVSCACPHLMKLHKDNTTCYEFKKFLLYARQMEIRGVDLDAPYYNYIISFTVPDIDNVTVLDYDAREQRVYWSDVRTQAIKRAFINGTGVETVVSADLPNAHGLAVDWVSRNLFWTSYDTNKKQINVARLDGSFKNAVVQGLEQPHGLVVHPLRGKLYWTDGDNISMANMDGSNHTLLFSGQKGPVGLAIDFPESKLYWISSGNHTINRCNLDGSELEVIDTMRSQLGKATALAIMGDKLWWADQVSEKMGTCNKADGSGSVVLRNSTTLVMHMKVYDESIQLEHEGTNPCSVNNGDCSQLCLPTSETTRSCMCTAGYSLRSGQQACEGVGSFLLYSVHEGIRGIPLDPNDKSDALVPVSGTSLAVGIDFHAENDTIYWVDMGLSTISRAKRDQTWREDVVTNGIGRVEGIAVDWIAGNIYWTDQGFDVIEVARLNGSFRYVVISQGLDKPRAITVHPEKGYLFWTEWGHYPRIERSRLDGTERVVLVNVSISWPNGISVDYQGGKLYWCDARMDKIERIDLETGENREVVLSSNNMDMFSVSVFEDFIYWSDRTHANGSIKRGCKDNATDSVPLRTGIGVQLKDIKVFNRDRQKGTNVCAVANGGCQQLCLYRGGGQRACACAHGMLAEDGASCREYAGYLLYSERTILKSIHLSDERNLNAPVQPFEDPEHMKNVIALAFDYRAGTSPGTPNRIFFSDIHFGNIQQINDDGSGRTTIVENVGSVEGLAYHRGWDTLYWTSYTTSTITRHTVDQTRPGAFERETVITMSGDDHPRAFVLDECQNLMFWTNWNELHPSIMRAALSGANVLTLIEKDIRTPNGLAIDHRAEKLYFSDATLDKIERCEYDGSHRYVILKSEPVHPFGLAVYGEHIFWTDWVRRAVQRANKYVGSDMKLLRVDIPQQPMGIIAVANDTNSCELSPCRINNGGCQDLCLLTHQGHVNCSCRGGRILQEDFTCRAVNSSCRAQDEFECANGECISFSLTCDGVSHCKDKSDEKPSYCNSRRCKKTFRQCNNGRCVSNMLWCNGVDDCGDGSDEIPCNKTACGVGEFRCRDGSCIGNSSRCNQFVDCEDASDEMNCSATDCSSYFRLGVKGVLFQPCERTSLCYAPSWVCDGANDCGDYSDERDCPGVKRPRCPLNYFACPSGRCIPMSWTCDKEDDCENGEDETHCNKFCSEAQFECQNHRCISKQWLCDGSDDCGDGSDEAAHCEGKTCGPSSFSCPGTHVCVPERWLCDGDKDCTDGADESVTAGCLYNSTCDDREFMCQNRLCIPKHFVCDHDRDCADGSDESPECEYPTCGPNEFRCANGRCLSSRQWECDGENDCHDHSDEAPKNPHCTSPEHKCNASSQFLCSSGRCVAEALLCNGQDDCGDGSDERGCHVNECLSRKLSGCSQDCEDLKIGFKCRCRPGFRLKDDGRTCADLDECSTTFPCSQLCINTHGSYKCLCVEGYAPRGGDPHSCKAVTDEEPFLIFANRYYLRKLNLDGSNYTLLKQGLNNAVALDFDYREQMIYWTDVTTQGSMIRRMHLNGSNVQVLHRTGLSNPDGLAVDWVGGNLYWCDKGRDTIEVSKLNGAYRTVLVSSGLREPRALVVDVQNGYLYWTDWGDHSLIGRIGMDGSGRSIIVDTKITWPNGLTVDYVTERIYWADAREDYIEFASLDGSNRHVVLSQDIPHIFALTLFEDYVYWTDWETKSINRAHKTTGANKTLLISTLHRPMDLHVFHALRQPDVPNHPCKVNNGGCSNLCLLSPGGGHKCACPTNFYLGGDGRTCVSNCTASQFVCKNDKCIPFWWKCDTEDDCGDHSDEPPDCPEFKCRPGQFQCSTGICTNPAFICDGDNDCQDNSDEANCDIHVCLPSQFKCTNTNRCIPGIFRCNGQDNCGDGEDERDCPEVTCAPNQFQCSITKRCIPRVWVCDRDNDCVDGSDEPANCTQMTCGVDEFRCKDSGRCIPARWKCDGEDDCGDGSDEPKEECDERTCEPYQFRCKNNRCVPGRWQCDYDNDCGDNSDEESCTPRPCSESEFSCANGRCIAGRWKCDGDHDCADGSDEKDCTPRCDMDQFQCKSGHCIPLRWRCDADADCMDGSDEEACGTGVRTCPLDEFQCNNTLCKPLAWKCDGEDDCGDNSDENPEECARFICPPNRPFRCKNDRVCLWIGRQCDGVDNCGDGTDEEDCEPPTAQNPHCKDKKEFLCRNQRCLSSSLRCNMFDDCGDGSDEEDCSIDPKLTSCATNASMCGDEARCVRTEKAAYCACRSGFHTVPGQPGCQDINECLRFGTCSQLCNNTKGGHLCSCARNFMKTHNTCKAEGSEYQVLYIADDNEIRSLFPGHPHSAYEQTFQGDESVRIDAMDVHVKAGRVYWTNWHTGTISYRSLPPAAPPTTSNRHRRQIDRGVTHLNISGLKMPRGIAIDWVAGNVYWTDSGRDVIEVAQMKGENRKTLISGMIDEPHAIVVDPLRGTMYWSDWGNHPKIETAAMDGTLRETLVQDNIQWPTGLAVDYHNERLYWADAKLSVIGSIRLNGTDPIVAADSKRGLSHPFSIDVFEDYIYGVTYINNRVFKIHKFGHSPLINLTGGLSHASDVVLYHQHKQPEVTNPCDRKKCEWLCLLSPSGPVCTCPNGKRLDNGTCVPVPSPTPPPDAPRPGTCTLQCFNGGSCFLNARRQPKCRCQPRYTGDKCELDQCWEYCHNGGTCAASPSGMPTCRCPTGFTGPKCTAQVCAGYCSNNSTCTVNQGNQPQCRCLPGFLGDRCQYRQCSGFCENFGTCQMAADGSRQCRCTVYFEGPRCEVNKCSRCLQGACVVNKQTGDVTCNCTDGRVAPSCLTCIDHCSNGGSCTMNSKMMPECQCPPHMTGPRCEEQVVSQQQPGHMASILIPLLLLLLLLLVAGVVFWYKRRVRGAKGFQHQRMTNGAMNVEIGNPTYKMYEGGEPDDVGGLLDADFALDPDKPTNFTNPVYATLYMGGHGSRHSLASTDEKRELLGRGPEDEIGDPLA

As to calreticulin (CRT) (ligand), the IFN alpha MFI (Fold Change), RAW264.7 M1 macrophages pulsed with calreticulin 10 ug/ml for 20 min was 7.5 fold; the IFN beta MFI (Fold Change), RAW264.7 M1 macrophages pulsed with calreticulin 10 ug/ml for 20 min was 7 fold; the IL-12 MFI (Fold Change), RAW264.7 M1 macrophages pulsed with calreticulin 10 ug/ml for 20 min worked out at 3.5 fold; the IL-15 MFI (Fold Change), RAW264.7 M1 macrophages pulsed with calreticulin 10 ug/ml for 20 min is 3.5 fold.
